From paper PMC8632296 (mAbs, 2021)

Legend:
[1] = molecular target: recombinant human carbonic anhydrase IX extracellular domain, monomer (human, UniProt Q16790); test: SPR
[2] = molecular target: recombinant human carbonic anhydrase IX extracellular domain, dimer (Homo sapiens, UniProt Q16790); test: SPR
[3] = molecular target: human carbonic anhydrase IX on cells and in tumour tissue (Homo sapiens, UniProt Q16790); test: plate-based cell binding assay

B1: c12H8, recombinant chimeric anti-hCAIX antibody (human IgG1) (antibody, V domains shown)
VH: QIQLVQSGPELKKPGETVKISCKASGYTFTNYGMNWVQQAPGKGLKWMGWINTYTGEPTYADDFKGRFAFSLETSASTAYLQINNLKNEDMATYFCARGGIATPTSYWGQGTTLTVSS
VL: not shown
**Q.** How did the Kd [1] turn out when B1 was run?
**A.** 34.5 nM

**Q.** What about the koff [1] of the same binder?
**A.** 0.0524 s⁻¹

**Q.** And the kon [1]?
**A.** 1.52e+06 M⁻¹ s⁻¹

**Q.** And the Kd [2]?
**A.** 0.032 nM

**Q.** And the koff [2]?
**A.** 0.000115 s⁻¹

**Q.** What about the kon [2] of the same binder?
**A.** 3.58e+06 M⁻¹ s⁻¹

**Q.** And the EC50 [3]?
**A.** 0.221 nM

B2: m4A2, recombinant murine anti-hCAIX antibody (mouse IgG2a) (antibody, V domains shown)
VH: EVKLEESGGGLVQPGRSMKLSCVASGFTFSYYWMDWVRQSPEKGLEWVAEIRLKSDNYATHYAESVKGRFTISRDDSKSSVYLQMNNLRAEDTGIYYCTRAPHYYGYFDYWGQGTTLTVSS
VL: QIVLTQSPAVMSAFPGEKVTMTCSASSSVGYMHWYQQKAGSSPRLLIYDTSNLSSGVPARCSGSGSGTSYSLTISRMEAEDAATYYCQQWRSYPPTFGGGTKLEIK
**Q.** How did the Kd [1] turn out when B2 was run?
**A.** 0.826 nM

**Q.** And the koff [1]?
**A.** 0.00019 s⁻¹

**Q.** What about the kon [1] of the same binder?
**A.** 229000 M⁻¹ s⁻¹

**Q.** What about the Kd [2] of the same binder?
**A.** 0.189 nM

**Q.** And the koff [2]?
**A.** 7.68e-05 s⁻¹

**Q.** What about the kon [2] of the same binder?
**A.** 406000 M⁻¹ s⁻¹

**Q.** And the EC50 [3]?
**A.** 1.16 nM

B3: m9B6, recombinant murine anti-hCAIX antibody (mouse IgG2a) (antibody, V domains shown)
VH: QVQLQQPGAELVKPGASVKLSCKASGYIFTTKWINWVKQRPGQGLEWIGNIYPGSSNTYYNEKFKNKATLTVDKSSNTAHLQLSSLTSEDSAVYYCARGIANWGQGTPVTVSA
VL: DIVLTQSPSSLAVSLGQRATISCKASQSVDYDGNSYMNWFQQKPGQPPKLLIYEASSLESGIPARISGSGSGTDFTLNIHPVEEEDAATYYCQQSYEGPYTFGGGTKLEIK
**Q.** B3 was tested. Which EC50 [3] did it give?
**A.** 21.8 nM
